{"source": "paper PMC9089796", "molecular_target": "His6-tagged SRC SH3SH2 (residues 84-251) (human) (UniProt P12931)", "test": "SPR; His6-SRC SH3SH2 captured on Ni-NTA dextran chip (NiD200M); PTP4A1 injected for 60 seconds at 50 μL/min; 25°C; 20 mM Tris pH 8.0, 250 mM NaCl, 0.05% Tween 20; single injections fit with a 1-to-1 model", "note": "pKd: −log10 of the molar value.", "data": [{"substance": "oxidized PTP4A1 (residues 1-160) for SPR and NMR (from UniProt Q93096 1-160) (domain or fragment)", "values": [{"measurement": "pKd", "value": 5.82}]}]}
